This test has as its target human ST2 on primary human cells (human) (UniProt Q01638). The test can be described thus: cell-based or functional assay.

The text below walks through data of patent US20170002079A1.

Sequence of human ST2 on primary human cells (human) (Q01638 19-556 A78X, form in doubt): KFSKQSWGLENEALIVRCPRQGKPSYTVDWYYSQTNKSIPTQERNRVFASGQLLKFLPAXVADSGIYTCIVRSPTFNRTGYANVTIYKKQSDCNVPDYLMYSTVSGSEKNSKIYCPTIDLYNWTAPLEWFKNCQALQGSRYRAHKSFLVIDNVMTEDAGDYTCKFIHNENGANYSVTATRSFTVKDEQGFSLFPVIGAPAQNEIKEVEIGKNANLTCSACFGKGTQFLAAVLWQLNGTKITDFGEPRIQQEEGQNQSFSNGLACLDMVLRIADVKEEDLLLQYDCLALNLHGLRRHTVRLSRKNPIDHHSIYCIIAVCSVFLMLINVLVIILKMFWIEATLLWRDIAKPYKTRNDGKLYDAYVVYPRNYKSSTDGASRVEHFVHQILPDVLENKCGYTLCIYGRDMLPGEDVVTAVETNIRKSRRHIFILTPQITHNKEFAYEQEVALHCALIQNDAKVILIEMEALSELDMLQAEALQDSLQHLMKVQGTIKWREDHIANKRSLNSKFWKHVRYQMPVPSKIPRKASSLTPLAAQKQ

The substance 97203 (antibody) gave an IC50 (ug/ml), inhibition of IL-33-dependent IFN-γ release from human NK cells (IL-33 10 ng/mL and IL-12) of 0.385 µg/mL.
